Sequences and labels used below:
B1: minF1; the commonest letter at each place (parent)
chain: GAGACCGCAACTGAAAAGTTGTTATCAGAAATGGATGGGTTGAATTTCTGCACGTAGAAGCAAAAGGC

Variants of B1 are the subject of the series. The experiment in a line: fraction ligated after 30 min (ligated reads / total reads); higher = more ligase activity. The note with it: with F1*subA RNA substrate (template-directed ligation), 42 °C. The method, boiled down: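 Ligated and unligated RNAs from a pool of minimized ligase ribozyme variants were separated on gels, reverse transcribed with barcoded primers and sequenced on a MiSeq. Core bases needed quality ≥30 to pass the filter. Each variant's fraction ligated was then taken as ligated reads over total reads.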
As for GAGACCGCAACTGAAAAGTTGTTATCAGAAATGTAGGGGTTGAATTTCTGCACGTAGAAGCAAAAGGC, the fraction ligated was determined as 0.00275. With GAGACCGCAACTGAAAAGTTGTTATCAGAAATGTACGGGTTGAATTTCTGCACGTAGAAGCAAAAGGC the figure was 0.00276; with GAGACCGCAACTGAAAAGTTGTTATCAGAAATGTAAGGGTTGAATTTCTGCACGTAGAAGCAAAAGGC, 0.00722; with GAGACCGCAACTGAAAAGTTGTTATCAGAAATGGCTGGGTTGAGTTTCTGCACGTAGAAGCAAAAGGC, 0.00784. In the case of GAGACCGCAACTGAAAAGTTGTTATCAGAAATGGCTGGGTTGACTTTCTGCACGTAGAAGCAAAAGGC, the fraction ligated came out at 0.00567. As to GAGACCGCAACTGAAAAGTTGTTATCAGAAATGGCTGGGTTGATTTTCTGCACGTAGAAGCAAAAGGC, the fraction ligated is 0.0114. Consider GAGACCGCAACTGAAAAGTTGTTATCAGAAATGTATGGGTTGACTTTCTGCACGTAGAAGCAAAAGGC, for which the fraction ligated was determined as 0.00445. As to GAGACCGCAACTGAAAAGTTGTTATCAGAAATGTATGGGTTGATTTTCTGCACGTAGAAGCAAAAGGC, the fraction ligated is 0.00748. Turning to GAGACCGCAACTGAAAAGTTGTTATCAGAAATGTATGGGTTGAGTTTCTGCACGTAGAAGCAAAAGGC, the fraction ligated came to 0.00592.

With GAGACCGCAACTGAAAAGTTGTTATCAGAAATGTATGGGTTGGATTTCTGCACGTAGAAGCAAAAGGC, the fraction ligated worked out at 0.0028. Next, GAGACCGCAACTGAAAAGTTGTTATCAGAAATGTATGGGTTGCATTTCTGCACGTAGAAGCAAAAGGC: 0.00412; GAGACCGCAACTGAAAAGTTGTTATCAGAAATGTATGGGTTGTATTTCTGCACGTAGAAGCAAAAGGC: 0.00646; GAGACCGCAACTGAAAAGTTGTTATCAGAAATGGGTGGGTTGACTTTCTGCACGTAGAAGCAAAAGGC: 0.0421.

With GAGACCGCAACTGAAAAGTTGTTATCAGAAATGGGTGGGTTGAGTTTCTGCACGTAGAAGCAAAAGGC, the fraction ligated is 0.0773. Next, GAGACCGCAACTGAAAAGTTGTTATCAGAAATGGGTGGGTTGATTTTCTGCACGTAGAAGCAAAAGGC: 0.105. As to GAGACCGCAACTGAAAAGTTGTTATCAGAAATGTATGGGTTTAATTTCTGCACGTAGAAGCAAAAGGC, the fraction ligated amounted to 0.00241. Next, GAGACCGCAACTGAAAAGTTGTTATCAGAAATGTATGGGTTAAATTTCTGCACGTAGAAGCAAAAGGC: 0.00242; GAGACCGCAACTGAAAAGTTGTTATCAGAAATGTATGGGTTCAATTTCTGCACGTAGAAGCAAAAGGC: 0.00101; GAGACCGCAACTGAAAAGTTGTTATCAGAAATGTATTGGTTGAATTTCTGCACGTAGAAGCAAAAGGC: 0.00356. For GAGACCGCAACTGAAAAGTTGTTATCAGAAATGTATAGGTTGAATTTCTGCACGTAGAAGCAAAAGGC, the fraction ligated worked out at 0.00473. With GAGACCGCAACTGAAAAGTTGTTATCAGAAATGTATCGGTTGAATTTCTGCACGTAGAAGCAAAAGGC the figure was 0.00496; with GAGACCGCAACTGAAAAGTTGTTATCAGAAATGGGTGGGTTGTATTTCTGCACGTAGAAGCAAAAGGC, 0.0109; with GAGACCGCAACTGAAAAGTTGTTATCAGAAATGGGTGGGTTGGATTTCTGCACGTAGAAGCAAAAGGC, 0.00504. GAGACCGCAACTGAAAAGTTGTTATCAGAAATGGGTGGGTTGCATTTCTGCACGTAGAAGCAAAAGGC: the fraction ligated is 0.00434.

For GAGACCGCAACTGAAAAGTTGTTATCAGAAATGGCGGGGTTGAATTTCTGCACGTAGAAGCAAAAGGC, the fraction ligated was determined as 0.00841. On to GAGACCGCAACTGAAAAGTTGTTATCAGAAATGGCAGGGTTGAATTTCTGCACGTAGAAGCAAAAGGC, for which the fraction ligated was found to be 0.00922.

As for GAGACCGCAACTGAAAAGTTGTTATCAGAAATGGCCGGGTTGAATTTCTGCACGTAGAAGCAAAAGGC, the fraction ligated was 0.00473. For GAGACCGCAACTGAAAAGTTGTTATCAGAAATGGCTGGGTTTAATTTCTGCACGTAGAAGCAAAAGGC, the fraction ligated came to 0.00281. On to GAGACCGCAACTGAAAAGTTGTTATCAGAAATGGCTGGGTTAAATTTCTGCACGTAGAAGCAAAAGGC, for which the fraction ligated was 0.00288.

Regarding GAGACCGCAACTGAAAAGTTGTTATCAGAAATGGCTGGGTTCAATTTCTGCACGTAGAAGCAAAAGGC, the fraction ligated came out at 0.00254. With GAGACCGCAACTGAAAAGTTGTTATCAGAAATGGCTGGGTTGGATTTCTGCACGTAGAAGCAAAAGGC, the fraction ligated was 0.00754. In the case of GAGACCGCAACTGAAAAGTTGTTATCAGAAATGGCTGGGTTGTATTTCTGCACGTAGAAGCAAAAGGC, the fraction ligated worked out at 0.00614. Next, GAGACCGCAACTGAAAAGTTGTTATCAGAAATGGCTGGGTTGCATTTCTGCACGTAGAAGCAAAAGGC: 0.00377; GAGACCGCAACTGAAAAGTTGTTATCAGAAATGTTTGGGTTGAATTTCTGCACGTAGAAGCAAAAGGC: 0.00561; GAGACCGCAACTGAAAAGTTGTTATCAGAAATGTGTGGGTTGAATTTCTGCACGTAGAAGCAAAAGGC: 0.0067.

For the variant GAGACCGCAACTGAAAAGTTGTTATCAGAAATGGGTGGGTTGAATTTCTGCACGTAGAAGCAAAAGGC, the fraction ligated worked out at 0.271. Turning to GAGACCGCAACTGAAAAGTTGTTATCAGAAATGGCTGGGTTGAATTTCTGCACGTAGAAGCAAAAGGC, the fraction ligated was 0.0267. As to GAGACCGCAACTGAAAAGTTGTTATCAGAAATGGCTTGGTTGAATTTCTGCACGTAGAAGCAAAAGGC, the fraction ligated was 0.00578. In the case of GAGACCGCAACTGAAAAGTTGTTATCAGAAATGGCTCGGTTGAATTTCTGCACGTAGAAGCAAAAGGC, the fraction ligated was 0.00352. Turning to GAGACCGCAACTGAAAAGTTGTTATCAGAAATGGCTAGGTTGAATTTCTGCACGTAGAAGCAAAAGGC, the fraction ligated is 0.00266.
